In PMC5034116 (Cell Research, 2016):

Molecular target: the molecule itself
Experiment: crystal structure

B1: NudC (residues 1-257, E178Q), Escherichia coli, active-site mutant (enzyme, UniProt P32664 1-257, looked up)
chain: MDRIIEKLDHGWWVVSHEQKLWLPKGELPYGEAANFDLVGQRALQIGEWQGEPVWLVQQQRRHDMGSVRQVIDLDVGLFQLAGRGVQLAEFYRSHKYCGYCGHEMYPSKTEWAMLCSHCRERYYPQIAPCIIVAIRRDDSILLAQHTRHRNGVHTVLAGFVEVGETLEQAVAREVMEQSGIKVKNLRYVTSQPWPFPQSLMTAFMAEYDSGDIVIDPKELLEANWYRYDDLPLLPPPGTVARRLIEDTVAMCRAEYE
- stoichiometry N: 2
